Measurements: patent US20040180354A1 (MANNKIND, published 2004)
One block for each binder: values may come before it.

Assays:
[1] = biological target: T1, HLA-A2.1 (HLA-A*0201) on the surface of T2 cells (human); assay: HLA-A2 binding assay, FACS profiles (T2 cells)
T1 construct: MHC class I molecule on T2 cells

[2] = biological target: T1, HLA-A2.1 (HLA-A*0201) on the surface of …; assay: T2 cell HLA-A2.1 stabilisation, flow cytometry with FITC anti-HLA A2, A28
[3] = biological target: T1, HLA-A2.1 (HLA-A*0201) on the surface of …; assay: HLA-A2 binding assay, FACS profiles (T2 cells); the weaker of the two 9-mers
[4] = biological target: T1, HLA-A2.1 (HLA-A*0201) on the surface of …; assay: T2 cell HLA-A*0201 stabilisation, flow cytometry

binding result [3]: binds
B3: tyrosinase208-216, LPWHRLFLL (peptide)
peptide: LPWHRLFLL
notes: Synthetic 9-mer from tyrosinase; also called Tyr 208-216

binding result [4]: binds
B4: PSMA663-671 (SEQ ID NO. 66) (peptide)
peptide: MMNDQLMFL
notes: Synthetic 9-mer from prostate specific membrane antigen

Continued, binder first:

B1: tyrosinase207-215, FLPWHRLFL (peptide)
peptide: FLPWHRLFL
notes: Synthetic 9-mer from tyrosinase; also called Tyr 207-215
binding result [1]: binds

B2: SSX-2 41-49, KASEKIFYV (peptide)
peptide: KASEKIFYV
notes: also called 15
binding result [2]: binds
